Measured values taken from patent EP1874358B1.

What was measured:
CEA = CEA (UniProt P06731); assay: SE-HPLC of 125I-TF2 mixed with a 20-fold molar excess of CEA
[1] = biological target: fusion protein containing the A3B3 domain of CEA (UniProt P06731); assay: competitive ELISA against HRP-conjugated hMN-14 IgG (1 nM) on A3B3 fusion protein

TF2 (bispecific antibody)
percent shifted to a high molecular weight species (CEA): 95%
fold avidity relative to TF1 [1]: 2 fold
